Common to all, as to details: both partners purified
The target of assay [1] is T1, GST-hHR23B, residues 262–409 (human, UniProt P54727 262-409).
T1 construct: human hHR23B, residues 262–409; also called C-terminal half of hHR23B; source: recombinant
T1 sequence (looked up): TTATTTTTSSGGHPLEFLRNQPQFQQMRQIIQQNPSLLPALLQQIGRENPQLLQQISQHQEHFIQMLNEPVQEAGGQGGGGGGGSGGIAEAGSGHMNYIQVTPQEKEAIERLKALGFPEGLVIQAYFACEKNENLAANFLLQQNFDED
The assay is described as follows: pull-down; 1000 pmol GST-tagged hHR23A/B and 1000 pmol NusA–VprFL in 500 μl PBS, 30 min 4 °C; TEV cleavage overnight at 4 °C; Glutathion-Sepharose 4B beads; anti-His immunoblot.

The target of assay [2] is T2, GST-hHR23B, residues 1–409 (human, UniProt P54727 1-409).
T2 construct: human hHR23B, residues 1–409; source: recombinant
T2 sequence (looked up): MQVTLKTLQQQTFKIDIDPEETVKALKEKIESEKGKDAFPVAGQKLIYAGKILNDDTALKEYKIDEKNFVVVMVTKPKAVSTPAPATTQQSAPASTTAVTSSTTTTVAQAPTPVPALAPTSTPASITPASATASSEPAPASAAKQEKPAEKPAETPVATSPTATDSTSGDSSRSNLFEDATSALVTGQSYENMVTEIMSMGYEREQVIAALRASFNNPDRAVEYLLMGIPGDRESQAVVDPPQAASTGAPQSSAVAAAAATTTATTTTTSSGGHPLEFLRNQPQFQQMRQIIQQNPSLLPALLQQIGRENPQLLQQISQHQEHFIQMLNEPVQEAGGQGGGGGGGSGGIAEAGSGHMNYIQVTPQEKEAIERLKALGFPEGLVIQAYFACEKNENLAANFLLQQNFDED
The assay is described as above.

In assay [3] the target is T3, GST-hHR23A, residues 1–363 (WT hHR23AFL) (human, UniProt P54725 1-363).
T3 construct: human hHR23A, full length, residues 1–363; also called GST-tagged WT hHR23A; source: recombinant
T3 sequence (looked up): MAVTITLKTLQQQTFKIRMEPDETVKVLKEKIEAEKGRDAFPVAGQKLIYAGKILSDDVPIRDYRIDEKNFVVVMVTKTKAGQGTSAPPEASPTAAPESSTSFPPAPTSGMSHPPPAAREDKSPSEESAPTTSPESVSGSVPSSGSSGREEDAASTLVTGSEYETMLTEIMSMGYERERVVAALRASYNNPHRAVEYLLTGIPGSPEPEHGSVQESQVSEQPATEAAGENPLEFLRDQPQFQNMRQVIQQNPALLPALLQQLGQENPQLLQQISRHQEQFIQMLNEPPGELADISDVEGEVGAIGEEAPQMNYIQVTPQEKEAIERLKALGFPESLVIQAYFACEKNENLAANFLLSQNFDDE
Described as above.

Another assay concerns the target T4, DCAF1_(1045–1396)/DDB1 (UniProt Q9Y4B6 1045-1396; Q16531 1-1140).
T4 construct: DCAF1, residues 1045-1396; DDB1
The assay is described as follows: ITC; NusA–Vpr1–79 (8.5 µM) in the cell, Trx-hHR23AFL or DCAF1 1045–1396/DDB1 (100 μM) added in aliquots; 18 °C; 20 mM sodium phosphate pH 7.4, 100 mM NaCl.

The target of a further assay is T5, Trx-hHR23AFL (human, UniProt P54725 1-363).
T5 construct: human hHR23A, full length (FL); source: E. coli Rosetta 2 (DE3) or Rosetta 2 (DE3) pLysS, purified (HisTrap, gel filtration)
T5 sequence (looked up): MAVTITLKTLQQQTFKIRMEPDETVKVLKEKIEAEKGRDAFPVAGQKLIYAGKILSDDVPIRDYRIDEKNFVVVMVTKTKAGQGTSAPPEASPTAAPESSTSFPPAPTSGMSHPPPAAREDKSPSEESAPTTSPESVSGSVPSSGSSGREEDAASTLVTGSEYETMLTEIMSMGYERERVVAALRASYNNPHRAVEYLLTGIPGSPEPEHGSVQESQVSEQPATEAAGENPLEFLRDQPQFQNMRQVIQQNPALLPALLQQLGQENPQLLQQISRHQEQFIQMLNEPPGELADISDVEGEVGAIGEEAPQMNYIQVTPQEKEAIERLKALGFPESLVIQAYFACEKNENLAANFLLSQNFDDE
Described as above.

The Kd is the free concentration of one partner at which half of the binding sites on the other are occupied at equilibrium, for simple one-to-one binding. Low readings indicate higher affinity, high ones lower affinity.

T4 sequence (Q9Y4B6 1045-1396, chain 1 of 2): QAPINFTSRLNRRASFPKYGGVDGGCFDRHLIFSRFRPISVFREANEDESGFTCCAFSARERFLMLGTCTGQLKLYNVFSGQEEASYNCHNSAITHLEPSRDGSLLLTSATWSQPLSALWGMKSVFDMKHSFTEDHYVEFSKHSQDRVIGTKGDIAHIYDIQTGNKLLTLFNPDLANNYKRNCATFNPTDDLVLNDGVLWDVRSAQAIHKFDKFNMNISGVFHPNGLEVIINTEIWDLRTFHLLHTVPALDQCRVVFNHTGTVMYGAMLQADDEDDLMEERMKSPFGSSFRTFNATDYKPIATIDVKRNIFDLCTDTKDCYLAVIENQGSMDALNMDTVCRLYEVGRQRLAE
T4 sequence (Q16531 whole entry, chain 2 of 2, the tested form may be a part): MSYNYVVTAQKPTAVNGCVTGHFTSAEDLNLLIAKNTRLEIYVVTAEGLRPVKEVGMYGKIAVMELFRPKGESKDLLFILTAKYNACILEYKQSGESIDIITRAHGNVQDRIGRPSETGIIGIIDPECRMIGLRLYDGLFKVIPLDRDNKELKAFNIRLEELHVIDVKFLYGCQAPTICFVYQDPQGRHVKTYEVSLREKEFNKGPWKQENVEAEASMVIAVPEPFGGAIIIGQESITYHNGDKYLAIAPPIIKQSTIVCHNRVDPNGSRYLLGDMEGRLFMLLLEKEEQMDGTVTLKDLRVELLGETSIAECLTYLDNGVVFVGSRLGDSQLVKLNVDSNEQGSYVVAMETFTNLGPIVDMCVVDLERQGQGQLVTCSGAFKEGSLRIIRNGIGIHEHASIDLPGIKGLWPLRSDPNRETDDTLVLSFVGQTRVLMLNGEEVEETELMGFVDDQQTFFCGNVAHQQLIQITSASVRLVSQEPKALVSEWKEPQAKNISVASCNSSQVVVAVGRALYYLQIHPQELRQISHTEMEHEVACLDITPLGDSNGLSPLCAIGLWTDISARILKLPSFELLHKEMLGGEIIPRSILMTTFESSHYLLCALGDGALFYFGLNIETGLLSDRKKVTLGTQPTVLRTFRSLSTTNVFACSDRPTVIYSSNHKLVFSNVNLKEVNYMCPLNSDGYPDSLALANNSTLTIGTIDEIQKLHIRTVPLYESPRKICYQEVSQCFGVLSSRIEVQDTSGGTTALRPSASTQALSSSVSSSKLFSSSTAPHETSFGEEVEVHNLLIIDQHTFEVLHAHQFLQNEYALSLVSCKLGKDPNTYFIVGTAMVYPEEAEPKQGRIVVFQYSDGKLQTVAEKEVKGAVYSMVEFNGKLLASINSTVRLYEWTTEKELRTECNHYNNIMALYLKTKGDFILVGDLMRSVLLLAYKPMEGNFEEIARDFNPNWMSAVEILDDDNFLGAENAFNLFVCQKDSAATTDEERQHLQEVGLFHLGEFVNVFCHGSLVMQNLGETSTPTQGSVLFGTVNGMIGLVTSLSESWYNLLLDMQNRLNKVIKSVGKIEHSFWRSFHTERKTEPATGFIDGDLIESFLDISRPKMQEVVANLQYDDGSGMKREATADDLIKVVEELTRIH

B1: recombinant VprFL (from NusA–VprFL) (natural protein)
chain: MEQAPEDQGPQREPYNEWTLELLEELKSEAVRHFPRIWLHNLGQHIYETYGDTWAGVEAIIRILQQLLFIHFRIGCRHSRIGVTRQRRARNGASRS
notes: HIV-1 Vpr, full length (FL); also called VprFL WT; source: recombinant NusA–VprFL
Regarding B1, the binding result in assay [1], in assay [2] and in assay [3] was “binds” throughout.

B2: recombinant VprFL L67A/I70A (natural protein)
chain: MEQAPEDQGPQREPYNEWTLELLEELKSEAVRHFPRIWLHNLGQHIYETYGDTWAGVEAIIRILQQALFAHFRIGCRHSRIGVTRQRRARNGASRS
notes: HIV-1 Vpr, full length, with L67A and I70A; also called L67A/I70A double mutant; source: recombinant NusA–VprFL
With B2, the binding result in assay [3] is listed as “binds”.

B3: recombinant VprFL R73A (natural protein)
chain: MEQAPEDQGPQREPYNEWTLELLEELKSEAVRHFPRIWLHNLGQHIYETYGDTWAGVEAIIRILQQLLFIHFAIGCRHSRIGVTRQRRARNGASRS
notes: HIV-1 Vpr, full length, with R73A; source: recombinant NusA–VprFL
Turning to B3, the binding result in assay [3] is “binds”.

B4: recombinant VprFL H45A (natural protein)
chain: MEQAPEDQGPQREPYNEWTLELLEELKSEAVRHFPRIWLHNLGQAIYETYGDTWAGVEAIIRILQQLLFIHFRIGCRHSRIGVTRQRRARNGASRS
notes: HIV-1 Vpr, full length, with H45A; source: recombinant NusA–VprFL
Turning to B4, the binding result in assay [3] is given as “binds”.

B5: recombinant VprFL Y50S (natural protein)
chain: MEQAPEDQGPQREPYNEWTLELLEELKSEAVRHFPRIWLHNLGQHIYETSGDTWAGVEAIIRILQQLLFIHFRIGCRHSRIGVTRQRRARNGASRS
notes: HIV-1 Vpr, full length, with Y50S; source: recombinant NusA–VprFL
As for B5, the binding result in assay [3] is reported as “binds”.

B6: NusA–Vpr_(1–79) (domain or fragment)
chain: MEQAPEDQGPQREPYNEWTLELLEELKSEAVRHFPRIWLHNLGQHIYETYGDTWAGVEAIIRILQQLLFIHFRIGCRHS
notes: HIV-1 Vpr, residues 1-79; source: E. coli Rosetta 2 (DE3) or Rosetta 2 (DE3) pLysS, purified (HisTrap, gel filtration)
For B6, the values for the Kd with DCAF1_(1045–1396)/DDB1 and with Trx-hHR23AFL were 116 ± 47 nM and 640 ± 408 nM, respectively.

Source of the values: paper PMC8617076, “Structure of HIV-1 Vpr in complex with the human nucleotide excision repair protein hHR23A” (Nature Communications, 2021).
